Data published in the supplement of paper PMC10724198.
± gives the standard deviation of the averaged measurements.

Assays:
Saccharomyces cerevisiae [1] = test: protein stability index of tFT-peptide fusion (C-terminal peptide) (PSI (0-1 scale)); higher = more stable (slower turnover)
Experimental: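 MPS profiling in S. cerevisiae of the tFT-X12 degron library: putative degron peptides plus stable controls, 12 aa, fused to the C-terminus of a sfGFP-mCherry timer. Cells are FACS-sorted into 8 mCherry/sfGFP bins and deep-sequenced. PSI runs from 0 (unstable) to 1 (stable). Backgrounds are wild type, das1Δ and doa10Δ at 30 °C, and wild type, das1Δ, cdc34-1 and cdc53-1 at 37 °C; 2-3 technical replicates each.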

Saccharomyces cerevisiae [2] = test: as above; settings: genetic background: wild type; temperature: 30 C
[3] = genetic background: cdc34-1, temperature: 37 C
[4] = genetic background: cdc53-1, temperature: 37 C
[5] = genetic background: das1 deletion, temperature: 30 C
[6] = genetic background: das1 deletion, temperature: 37 C
[7] = genetic background: doa10 deletion, temperature: 30 C
[8] = genetic background: wild type, temperature: 30 C
[9] = genetic background: wild type, temperature: 37 C
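Also: PSI is a weighted mean of sequencing reads over stability bins, variants kept only with over 10 reads, mCherry proximal and sfGFP distal, peptide attached via GGGS linker.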

Sequence | protein stability index (Saccharomyces cerevisiae [1]; [3]) | protein stability index (Saccharomyces cerevisiae [1]; [4]) | protein stability index (Saccharomyces cerevisiae [1]; [5]) | protein stability index (Saccharomyces cerevisiae [1]; [6]) | protein stability index (Saccharomyces cerevisiae [1]; [7]) | protein stability index (Saccharomyces cerevisiae [1]; [8]) | protein stability index (Saccharomyces cerevisiae [1]; [9]) | protein stability index (Saccharomyces cerevisiae [2])
FTFPLPPSLLLV | 0.378 ± 0.023 | 0.389 ± 0.0036 | 0.322 ± 0.021 | 0.456 ± 0.011 | 0.2603 ± 0.00082 | 0.233 ± 0.028 | 0.37 ± 0.0071 | 0.347 ± 0.017
ALSRFFSVFLLV | 0.592 ± 0.013 | 0.671 ± 0.009 | 0.55 ± 0.019 | 0.6766 ± 0.0044 | 0.26 ± 0.012 | 0.266 ± 0.03 | 0.454 ± 0.032 | 0.3814 ± 0.00064
LGRVSAKFFCVL | 0.654 ± 0.066 | 0.74 ± 0.013 | 0.646 ± 0.014 | 0.7237 ± 0.0027 | 0.13 ± 0.015 | 0.134 ± 0.022 | 0.246 ± 0.018 | 0.239 ± 0.022
IHIFIIFRVQWK | 0.176 ± 0.064 | 0.232 ± 0.036 | 0.179 ± 0.025 | 0.272 ± 0.018 | 0.163 ± 0.0023 | 0.156 ± 0.05 | 0.249 ± 0.03 | 0.227 ± 0.012
GYACSIFYLRCV | 0.535 ± 0.037 | 0.5771 ± 6.4e-05 | 0.496 ± 0.03 | 0.6266 ± 0.00063 | 0.218 ± 0.0038 | 0.23 ± 0.021 | 0.444 ± 0.016 | 0.377 ± 0.014
PRHLTPPPAPSA | 0.704 ± 0.059 | 0.721 ± 0.024 | 0.675 ± 0.022 | 0.708 ± 0.013 | 0.66 ± 0.038 | 0.659 ± 0.022 | 0.6742 ± 0.0042 | 0.642 ± 0.24
DIRLWISCTLWF | 0.244 ± 0.019 | 0.361 ± 0.043 | 0.25 ± 0.029 | 0.425 ± 0.014 | 0.26 ± 0.0053 | 0.242 ± 0.025 | 0.37 ± 0.019 | 0.324 ± 0.013
VLVVASLRFSFF | 0.207 ± 0.054 | 0.34 ± 0.036 | 0.197 ± 0.029 | 0.40083 ± 0.00033 | 0.173 ± 0.019 | 0.2 ± 0.014 | 0.38 ± 0.0063 | 0.249 ± 0.017
VVLCQVCVLWGW | 0.0623 ± 0.011 | 0.202 ± 0.029 | 0.167 ± 0.031 | 0.252 ± 0.01 | 0.148 ± 0.0088 | 0.151 ± 0.029 | 0.229 ± 0.025 | 0.257 ± 0.016
LRFFYFLHFCIL | 0.36 ± 0.033 | 0.366 ± 0.024 | 0.43 ± 0.018 | 0.504 ± 0.0076 | 0.256 ± 0.0083 | 0.223 ± 0.0052 | 0.286 ± 0.021 | 0.277 ± 0.03
VKGYISLLLVLI | 0.269 ± 0.01 | 0.332 ± 0.012 | 0.264 ± 0.04 | 0.419 ± 0.0071 | 0.289 ± 0.0043 | 0.259 ± 0.014 | 0.365 ± 0.011 | 0.345 ± 0.013
MMEMMTKSNRIP | 0.683 ± 0.029 | 0.737 ± 0.015 | 0.63 ± 0.016 | 0.709 ± 0.04 | 0.4 ± 0.02 | 0.446 ± 0.074 | 0.639 ± 0.016 | 0.517 ± 0.025
PHGASLCVPPSP | 0.675 ± 0.025 | 0.739 ± 0.0082 | 0.647 ± 0.0089 | 0.7271 ± 0.0072 | 0.645 ± 0.02 | 0.651 ± 0.014 | 0.69931 ± 2.1e-06 | 0.491 ± 0.0074
SVVWIRFVGVRV | 0.472 ± 0.026 | 0.507 ± 0.022 | 0.322 ± 0.024 | 0.5291 ± 0.0048 | 0.285 ± 0.0075 | 0.328 ± 0.016 | 0.499 ± 0.0089 | 0.418 ± 0.0043
YFFFLFFLLPPF | 0.453 ± 0.045 | 0.477 ± 0.025 | 0.408 ± 0.041 | 0.505 ± 0.0069 | 0.416 ± 0.007 | 0.356 ± 0.034 | 0.498 ± 0.0073 | 0.374 ± 0.029
IFLLLRRIIALS | 0.126 ± 0.0094 | 0.326 ± 0.044 | 0.411 ± 0.047 | 0.554 ± 0.023 | 0.0418 ± 0.017 | 0.0337 ± 0.0068 | 0.0499 ± 0.018 | 0.107 ± 0.12
NYCLYFKLSRLS | 0.62 ± 0.029 | 0.691 ± 0.016 | 0.603 ± 0.015 | 0.655 ± 0.021 | 0.221 ± 0.02 | 0.25 ± 0.017 | 0.429 ± 0.011 | 0.3897 ± 0.00059
CWSSVGLSVCGC | 0.676 ± 0.026 | 0.7508 ± 0.0058 | 0.619 ± 0.031 | 0.7193 ± 0.0065 | 0.597 ± 0.037 | 0.599 ± 0.012 | 0.693 ± 0.024 | 0.601 ± 0.16
PPSLFLLLKVFF | 0.321 ± 0.0034 | 0.362 ± 0.012 | 0.279 ± 0.037 | 0.458 ± 0.005 | 0.268 ± 0.0069 | 0.223 ± 0.023 | 0.357 ± 0.0065 | 0.3254 ± 0.0024
VFRRWGLIGVIV | 0.306 ± 0.026 | 0.326 ± 0.022 | 0.278 ± 0.041 | 0.434 ± 0.018 | 0.181 ± 0.0038 | 0.226 ± 0.032 | 0.353 ± 0.0088 | 0.378 ± 0.0068

Sequence | protein stability index (Saccharomyces cerevisiae [1]; [3]) | protein stability index (Saccharomyces cerevisiae [1]; [4]) | protein stability index (Saccharomyces cerevisiae [1]; [5]) | protein stability index (Saccharomyces cerevisiae [1]; [6]) | protein stability index (Saccharomyces cerevisiae [1]; [7]) | protein stability index (Saccharomyces cerevisiae [1]; [8]) | protein stability index (Saccharomyces cerevisiae [1]; [9]) | protein stability index (Saccharomyces cerevisiae [2])
VVWIQRTVLSLI | 0.565 ± 0.038 | 0.603 ± 0.015 | 0.505 ± 0.03 | 0.6 ± 0.011 | 0.151 ± 0.0065 | 0.184 ± 0.027 | 0.327 ± 0.0052 | 0.27 ± 0.049
LFVFTYPFLSWL | 0.617 ± 0.011 | 0.66 ± 0.011 | 0.591 ± 0.042 | 0.6963 ± 0.0031 | 0.552 ± 0.028 | 0.514 ± 0.016 | 0.615 ± 0.0094 | 0.478 ± 0.0061
AIMFLVLGYVFF | 0.262 ± 0.085 | 0.395 ± 0.018 | 0.269 ± 0.03 | 0.462 ± 0.019 | 0.255 ± 0.036 | 0.276 ± 0.027 | 0.452 ± 0.019 | 0.378 ± 0.034
TTSHFCVVLVSV | 0.283 ± 0.042 | 0.307 ± 0.016 | 0.232 ± 0.039 | 0.382 ± 0.009 | 0.182 ± 0.012 | 0.217 ± 0.032 | 0.356 ± 0.013 | 0.32 ± 0.016
IRVLACFLFAVS | 0.202 ± 0.016 | 0.305 ± 0.017 | 0.172 ± 0.0094 | 0.32 ± 0.0072 | 0.095 ± 0.0081 | 0.12 ± 0.022 | 0.247 ± 0.025 | 0.17 ± 0.01
PGFCFFLYYCMM | 0.4815 ± 0.0025 | 0.558 ± 0.056 | 0.416 ± 0.031 | 0.562 ± 0.011 | 0.368 ± 0.0053 | 0.412 ± 0.018 | 0.5331 ± 0.00095 | 0.49 ± 0.034
DLRFAWLLSCFS | 0.44 ± 0.017 | 0.47 ± 0.011 | 0.331 ± 0.034 | 0.501 ± 0.014 | 0.293 ± 0.006 | 0.334 ± 0.022 | 0.476 ± 0.0054 | 0.432 ± 0.015
LVLELYRFARFG | 0.636 ± 0.03 | 0.7337 ± 0.0046 | 0.643 ± 0.0069 | 0.742 ± 0.015 | 0.2704 ± 0.00045 | 0.276 ± 0.043 | 0.532 ± 0.038 | 0.3197 ± 0.0012
AGGVNWWSSWRV | 0.739 ± 0.049 | 0.767 ± 0.0082 | 0.648 ± 0.015 | 0.775 ± 0.011 | 0.6591 ± 0.0032 | 0.669 ± 0.014 | 0.78 ± 0.037 | 0.7454 ± 0.006
HINRTIWARYQV | 0.648 ± 0.069 | 0.742 ± 0.009 | 0.643 ± 0.033 | 0.75 ± 0.021 | 0.156 ± 0.019 | 0.174 ± 0.034 | 0.429 ± 0.032 | 0.362 ± 0.071
GWVQFVKAAVLF | 0.655 ± 0.063 | 0.7587 ± 0.0019 | 0.59 ± 0.031 | 0.73964 ± 3.5e-06 | 0.197 ± 0.0058 | 0.211 ± 0.043 | 0.4443 ± 0.0032 | 0.36 ± 0.053
SFLLGCCWLVLC | 0.222 ± 0.04 | 0.309 ± 0.0045 | 0.27 ± 0.03 | 0.3934 ± 0.0034 | 0.1353 ± 0.00058 | 0.116 ± 0.0073 | 0.127 ± 0.0028 | 0.155 ± 0.0099
LFVVHCFLSVSS | 0.0267 ± 0.0027 | 0.0524 ± 0.033 | 0.0648 ± 0.021 | 0.165 ± 0.0062 | 0.0415 ± 0.0025 | 0.0374 ± 0.017 | 0.133 ± 0.029 | 0.109 ± 0.039
LFIVTFIPVLFS | 0.49 ± 0.064 | 0.545 ± 0.034 | 0.374 ± 0.016 | 0.623 ± 0.0088 | 0.41 ± 0.0081 | 0.384 ± 0.041 | 0.59 ± 0.08 | 0.494 ± 0.0074
CAGLLSVSFWLF | 0.516 ± 0.024 | 0.589 ± 0.037 | 0.44 ± 0.033 | 0.597 ± 0.022 | 0.351 ± 0.0039 | 0.381 ± 0.017 | 0.552 ± 0.0056 | 0.499 ± 0.0012
LPVPVLGFPPLA | 0.703 ± 0.022 | 0.778 ± 0.018 | 0.664 ± 0.018 | 0.732 ± 0.032 | 0.659 ± 0.027 | 0.655 ± 0.015 | 0.71 ± 0.011 | 0.7186 ± 0.0014
LWNFYELVVYAM | 0.046 ± 0.016 | 0.0695 ± 0.046 | 0.159 ± 0.035 | 0.153 ± 0.04 | 0.103 ± 0.021 | 0.121 ± 0.019 | 0.114 ± 0.0054 | 0.212 ± 0.018
IRDGPWKRVLVV | 0.599 ± 0.031 | 0.596 ± 0.01 | 0.48 ± 0.028 | 0.642 ± 0.0055 | 0.125 ± 0.0086 | 0.157 ± 0.015 | 0.245 ± 0.0076 | 0.348 ± 0.051
PPSPPPLSASVP | 0.661 ± 0.04 | 0.698 ± 0.025 | 0.667 ± 0.053 | 0.698 ± 0.02 | 0.677 ± 0.024 | 0.669 ± 0.015 | 0.7 ± 0.0078 | 0.578 ± 0.14
